Measurements taken from US20140241987A1.

Columns and labels:
[1] = molecular target: α-synuclein fibrils (human) (UniProt P37840); assay: SPR, BIAcore X100, fibrils immobilised on CM5, mAb injected
[2] = molecular target: α-synuclein fibrils (human) (UniProt P37840); assay: inhibition ELISA, fibrils against monomers

Substance | Kd [1] [nM] | koff [1] [s⁻¹] | kon [1] [M⁻¹ s⁻¹] | Fold Affinity to Fibrils [2] [fold]
Syn-O1 (antibody) | 0.016 | 9.36e-05 | 5.86e+06 | 12700
Syn-O3 (antibody) | 0.171 | 0.000379 | 2.22e+06 | 11100
Syn-O4 (antibody) | 0.138 | 0.000996 | 7.24e+06 | 6930
Syn-O2 (antibody) | 0.0969 | 0.00127 | 1.31e+07 | 27300
